Experimental data taken from patent US20030003461, “Truncation selex method” (Gilead Sciences, Inc., published 2003).
Changes are numbered by the printed parent chain.

Legend:
VEGF [1] = target: T1, VEGF (Homo sapiens, UniProt P15692-4 P15692-4:27-191); assay: filter; phenotype 4: unaffected; conditions: tags: recombinant human, R&D Systems; chain copies: 2
[2] = target: T2, MS2 coat protein (MS2 CP) (bacteriophage MS2, UniProt P03612 P03612:2-130, V75E;A81G); assay: filter; binds better than natural MS2 site; conditions: chain copies: 2 (dimer, stated); hairpin
VEGF [3] = target: T1, VEGF; assay: filter; phenotype 2: somewhat affected; conditions: tags: recombinant human, R&D Systems; chain copies: 2
VEGF [4] = target: T1, VEGF; assay: filter; phenotype 4: unaffected (Table 10 clone 34,36a: phenotype 1); conditions: tags: recombinant human, R&D Systems; chain copies: 2
VEGF [5] = target: T1, VEGF; assay: filter; phenotype 3: gains significant affinity when truncated; conditions: tags: recombinant human, R&D Systems; chain copies: 2
[6] = target: T2, MS2 coat protein (MS2 CP); assay: filter; only marginally worse than full isolate; conditions: chain copies: 2 (dimer, stated); hairpin
VEGF (VEGF165?) = VEGF (VEGF165?) (Homo sapiens, UniProt P15692-4 P15692-4:27-191); assay: filter; phenotype 5: non-binding with or without 3' fixed sequence; conditions: tags: R&D Systems; chain copies: 2; label: 32P body
[7] = target: T2, MS2 coat protein (MS2 CP); assay: filter; tightest of the isolates; 100 mM HEPES-KOH pH 7.5, 80 mM KCl, 10 mM MgCl2, 24-25 C; conditions: chain copies: 2 (dimer, stated); hairpin
TGFβ1 = TGFβ1 (Homo sapiens, UniProt P01137 P01137:279-390); assay: cell_activity; full inhibition of TGFβ1 in mink lung epithelial cell proliferation assay; conditions: tags: recombinant human, R&D Systems; chain copies: 2
Experimental: RNA was synthesized by phosphoramidite chemistry. Indicator cells (mink lung epithelial cells) were incubated with TGFβ1 and dilutions of RNA as described. The extent of cell proliferation was measured by ³H-thymidine incorporation and the data were analyzed as described. The points represent an average of n=2 and error bars are standard errors. The sequence of CD70syn and 30N7-9syn are 5′[…] (SEQ ID NO:323) and 5′[…] (SEQ ID NO:324), respectively.
The bioactivity of TGFβ1 nucleic acid ligands was measured with mink lung epithelial cells as described in U.S. patent application Ser. No. 09/046,247, filed Mar. 23, 1998. Briefly, proliferation of these cells is inhibited by TGFβ1. Human TGFβ1 was titrated on the cells and ³H-thymidine incorporation was measured. The point at which ³H-thymidine incorporation by the cells was inhibited by 90-100% was determined (typically 1-4 pM). This inhibitory amount of TGFβ1 along with varying amounts of nucleic acid ligand (typically 0.3 or 1 nM to 1 or 3 μM, in 3 fold increments) was used. Cells were plated at 1×10⁵/ml in 96-well plates in 100 μl MEM, 10 mM HEPES pH 7.5, 0.2% FBS. […] After incubation, the cells were lysed with 1% Triton X-100 and harvested onto GF/B filter plates by the Packard 96 well plate harvester, and ³H-thymidine incorporation in cellular DNA was quantitated by scintillation counting in microscint at the Packard Top-Count. […]

Chain of VEGF (VEGF165?) (P15692 other isoform, or with tags, fused parts or gaps): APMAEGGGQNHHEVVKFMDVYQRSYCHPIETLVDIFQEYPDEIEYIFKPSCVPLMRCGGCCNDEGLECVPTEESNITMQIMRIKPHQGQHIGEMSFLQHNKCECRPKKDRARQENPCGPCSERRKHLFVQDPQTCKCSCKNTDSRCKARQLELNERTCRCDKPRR
T1 sequence (P15692 other isoform, or with tags, fused parts or gaps): as above
Chain of TGFβ1 (P01137 279-390, one chain of several): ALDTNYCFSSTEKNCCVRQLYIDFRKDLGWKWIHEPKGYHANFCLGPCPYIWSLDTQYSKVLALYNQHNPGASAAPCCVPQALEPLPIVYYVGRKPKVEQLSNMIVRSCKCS

B1: VEGF hyb 6 (ssRNA)
RNA: GGGAGGACGAUGCGGAUUUGGAUGCAUGUCAAGGCGUUUUGCCCUCAGACGACUCGCCCGA
modifications: 2'-F pyrimidines
binding result (VEGF [1]): binds

B2: ygiI isolate 4 (ssRNA)
RNA: GGGAAAGCCCACGCCUAGGAGAGCGUUAACAACAGCAUCAGCGUUGAAGUGACGGAGGUACCGAACUGCCGCACC
binding result [2]: binds

B3: T2-18 (ssRNA)
RNA: GGGAGUGGAAAUCAGUGAAUGCUUAUAGUUUCUCGCGUCACACAGACGACUCGCCCGA
modifications: 2'-F pyrimidines
binding result (VEGF [1]): binds

B4: VEGF hyb 24 (ssRNA)
RNA: GGGAGGACGAUGCGGAAGGCGACUUGUAUGUGAUUCAGUAUUGGUCAGACGACUCGCCCGA
modifications: 2'-F pyrimidines
binding result (VEGF [3]): binds

B5: VEGF hyb 10,16b (ssRNA)
RNA: GGGAGGACGAUGCGGUGAAACGGAAGAAUUGGAAACAUUGCUCGUCAGACGACUCGCCCGA
modifications: 2'-F pyrimidines
binding result (VEGF [4]): binds

B6: VEGF hyb 13b,21a (ssRNA)
RNA: GGGAGGACGAUGCGGUGUUGAUCGAGAUUUAAUCUAUUUCCACGUCAGACGACUCGCCCGA
modifications: 2'-F pyrimidines
binding result (VEGF [5]): binds

GGCACGCGUAUUCACUGAGCAUCAGCCAGACUGUGU (ssRNA) [rffG minus fixed sequences]
binding result [6]: binds

B7: VEGF hyb 2a,23 (VT30.3) (ssRNA)
RNA: GGGAGGACGAUGCGGAGAAUCAGUGAAUGCUUAUAAAUCUCGUGUCAGACGACUCGCCCGA
modifications: 2'-F pyrimidines
binding result (VEGF [1]): binds

B8: VT30.3 (ssRNA)
RNA: B7 RNA
modifications: 2'-F pyrimidines
binding result (VEGF [3]): binds

GGGAGGUCUCCAGACGACUCGCCCGA (ssRNA, 2'-F pyrimidines) [T1-16]
binding result (VEGF (VEGF165?)): no binding

B9: VEGF hyb 4b (ssRNA)
RNA: GGGAGGACGAUGCGGAGACUUUGGAAGAAUUGAAUUUGUCCGUGUCAGACGACUCGCCCGA
modifications: 2'-F pyrimidines
binding result (VEGF [3]): binds

B10: T1-13 (ssRNA)
RNA: GGGAGCAGACGACUCGCCCGACAGACCACUCGCCCGACAGACGACUCGCCCGA
modifications: 2'-F pyrimidines
binding result (VEGF (VEGF165?)): no binding

B11: T2-17 (ssRNA)
RNA: GGGAGAGGAGAAUCAGUGAAUGCUUAUAAAUCUCGUGUCACACAGACGACUCGCCCGA
modifications: 2'-F pyrimidines
binding result (VEGF [3]): binds

B12: T1-15 (ssRNA)
RNA: GGGAGGGGGGGGGAGUGAAUGCUUAUUAGAUCUGCCGUCACAGACGACUCGCCCGA
modifications: 2'-F pyrimidines
binding result (VEGF (VEGF165?)): no binding

B13: T1-1 (ssRNA)
RNA: GGGAGCGGACGACCUGGUGAAUGCCAAUAUACUUUUCGCGUCACAGACGACUCGCCCGA
modifications: 2'-F pyrimidines
binding result (VEGF (VEGF165?)): no binding

B14: rffG isolate 1 (ssRNA)
RNA: GGGAAAGCCCACGCCGGCACGCGUAUUCACUGAGCAUCAGCCAGACUGUGUACCGAACUGCCGCACC
binding result [7]: binds

B15: o356 isolate 3 (ssRNA)
RNA: GGGAAAGCCCACGCCAAUGUUCCACCAGCAGGGGAAAUGAUGUUGUUCUGGCUACCGAACUGCCGCACC
binding result [2]: binds

B16: T2-20 (ssRNA)
RNA: GGGAGGGGAGGAAACGGAAGAAUUGGAAAACACCCGUCAGCACAGACGACUCGCCCGA
modifications: 2'-F pyrimidines
binding result (VEGF [3]): binds

B17: mreD isolate 5 (ssRNA)
RNA: GGGAAAGCCCACGCCUGAUUUGCAGCAACAGCGCAAUGAGGAAAGAGAGCCAGAUUACCCACCGAACUGCCGCACC
binding result [2]: binds

B18: T2-23 (ssRNA)
RNA: GGGAGGGACUGAAUGAAUGUUGACGGUUACGCUUUCCCCACAGACGACUCGCCCGA
modifications: 2'-F pyrimidines
binding result (VEGF [1]): binds

GGGAGCAGACGACUCGCCCGAGGAGGAGGGGGGCAGACGACUCGCCCGA (ssRNA, 2'-F pyrimidines) [T1-3]
binding result (VEGF (VEGF165?)): no binding

GGGUGCCUUUUGCCUAGGUUGUGAUUUGUAACCUUCUGCCCA (ssRNA, 2'-F pyrimidines (inferred)) [CD70syn]
Ki (TGFβ1): ~74.6 nM

B19: VEGF hyb 4a (ssRNA)
RNA: GGGAGGACGAUGCGGAAACGGAACUUCUUGGAUACAUCUGCUCGUCAGACGACUCGCCCGA
modifications: 2'-F pyrimidines
binding result (VEGF [5]): binds

B20: VEGF hyb 1 (ssRNA)
RNA: GGGAGGACGAUGCGGAGCUAGGUGAAUGCCGAUAUUCUCUUCCGUCAGACGACUCGCCCGA
modifications: 2'-F pyrimidines
binding result (VEGF [1]): binds

B21: VEGF hyb 21b (ssRNA)
RNA: B20 RNA with A16U, G17A, U35A, C39U, U40A
modifications: 2'-F pyrimidines
binding result (VEGF [5]): binds

GGGAGGAAACGGAAGAAUUGGAAAACACCCGUCCAGACGACUCGCCCGA (ssRNA, 2'-F pyrimidines) [T2-7]
binding result (VEGF [3]): binds

B22: T1-4 (ssRNA)
RNA: GGGAGGCAGACGACUCGCCCGAGGAUACACAUCGUGUGGUCAGACGACUCGCCCGA
modifications: 2'-F pyrimidines
binding result (VEGF (VEGF165?)): no binding

B23: pheT isolate 2 (ssRNA)
RNA: GGGAAAGCCCACGCCCUUCGCUUCAGUACCGUCGAGCAGCACCAGCGUUUCGCCACCGAACUGCCGCACC
binding result [2]: binds

B24: T2-11 (ssRNA)
RNA: GGGAGGGACACUGGUUCCGAAGUAUUGUCUUUGUCCUCACAGCAGACGACUCGCCCGA
modifications: 2'-F pyrimidines
binding result (VEGF [3]): binds

B25: VEGF hyb 15b,19 (ssRNA)
RNA: GGGAGGACGAUGCGGACAUGUAGGAAGAAUUGGAAGAUGCCGCGUCAGACGACUCGCCCGA
modifications: 2'-F pyrimidines
binding result (VEGF [3]): binds

B26: VT30.9 (ssRNA)
RNA: GGGAGGACGAUGCGGUCAACCGGUUGAAUAUUUGGUCGCUGACCUCAGACGACUCGCCCGA
modifications: 2'-F pyrimidines
binding result (VEGF [1]): binds

B27: VEGF hyb 3a (VT30.1) (ssRNA)
RNA: GGGAGGACGAUGCGGAACUAGUGAAUGCUUAUACGACCGUGUUGUCAGACGACUCGCCCGA
modifications: 2'-F pyrimidines
binding result (VEGF [3]): binds

B28: T1-5 (ssRNA)
RNA: GGGAGGGUGAAUGCCAACGAUUUUAUCGCCUAUCGUCACAGACGACUCGCCCGA
modifications: 2'-F pyrimidines
binding result (VEGF (VEGF165?)): no binding

B29: T1-2 (ssRNA)
RNA: GGGAGACCACCAGACGACUCGCCCGAACGCUUAUCCUCUGGUCAGACGACUCGCCCGA
modifications: 2'-F pyrimidines
binding result (VEGF (VEGF165?)): no binding

B30: isolate 7 (ssRNA)
RNA: GGGAAAGCCCACGCCAGUAAUUACGCCAUGAACACAGGCAUAAAGAAGUACAUAUGGUACCGAACUGCCGCACC
binding result [2]: binds
